The text below walks through data of patent US20220160767A1 (CHILDREN S NATIONAL MEDICAL CENTER, published 2022).

This assay addresses T1, HLA-DRB1*11:01 (human, UniProt P01911 30-227; P01903 26-216).
T1 construct: whole, on cells; Class II molecule on irradiated, partially HLA-matched PHA-blasts; Only the DRB1 allele is printed; also called HLA-DR11
As to the kind of experiment: restriction testing: IFN-γ ELISpot of CSTs with partially HLA-matched PHA-blasts pulsed with peptide (indirect read-out).

B1: Membrane peptide 37 (AA 145-160) (peptide)
peptide: LRGHLRIAGHHLGRC
notes: also called LRGHLRIAGHHLGRC
Regarding B1, the binding result is reported as “binds”.
